Experimental data: patent US20150164984A1, “Colicins for Treating Bacterial Infections” (The University Court of the University of Glasgow, priority 2012, published 2015)

Tests used:
[1] = test system: AIEC in the biofilm state; assay: MBEC biofilm assay, viability by XTT; assay type: cell-based, E. coli; conditions: for ability to kill AIEC in the biofilm state: 6 additional strains of AIEC; for antimicrobial activity against biofilm-associated cells compared with ampicillin, metronidazole and rifaximin: all isolates; for relative effectiveness among colicins in killing AIEC in the biofilm state: multiple AIEC strains
Excerpt: The clinically relevant state for AI E. coli in the infected gut mucosa is the biofilm state in which bacteria show enhanced tolerance to antibiotics. We therefore tested the ability of colicins to kill AI E. coli in the biofilm state using the MBEC Physiology and Genetics Assay (Innovotech). In this assay, biofilm growth occurs on 96 identical pegs protruding from the lid of a 96-well microtitre plate.
To determine the cytotoxicity of colicins against LF82 biofilms we compared the % cell survival of AIEC in biofilms treated with colicins with those exposed to antibiotics which are frequently prescribed in the treatment of Crohn's disease (FIG. 1). Biofilms were formed on the MBEC™ 96-peg plate platform for 24 h, then challenged for 1 h with 150 μl dilutions of the antibiotics (ampicillin, ciprofloxacin, metronidazole and rifaximin) and colicins (E1, E3, E9 and D) in sterile PBS in the concentration range 0.002 μg/ml-200 μg/ml. All dilutions of antimicrobials were done in triplicate and control antimicrobial-free biofilms were treated with 150 μl of sterile PBS. Following treatment, the viability of biofilm-associated cells was tested using the metabolic dye XTT. The XTT salt changes colour when it is metabolised by viable cells. This colour change can be compared to untreated antimicrobial-free biofilms, giving an indication of the percentage survival in biofilms exposed to the antimicrobials.
We further tested the ability of colicins E1 (a pore-forming colicin) E3 (a rRNase), E9 (a DNase), D (a tRNase) and IA (a pore-forming colicin) to kill 6 additional strains of AIEC in the biofilm state.

[2] = test system: adherent invasive E. coli isolates (AIEC) 95, 419, 615 and LF82; assay: spot test of purified colicin on a growing lawn of cells (zones of inhibition); assay type: cell-based; conditions: isolates 95, 419, 615 and LF82; 2 μl drop of 0.2 mg/ml colicin, 18 h
Experimental: Briefly, 25 μl of a log phase bacterial culture (OD600=0.6) was added to 5 ml of molten 0.8% agarose and poured on top of an LB agar plate. A 2 μl drop of each colicin (0.2 mg/ml) was spotted onto the overlay plate. The plates were incubated for 18 h and examined for zones of inhibition. All E. coli isolates tested were sensitive to the cytotoxic activity of the four colicin proteins, as indicated by the presence of clear zones representing cell killing (not shown).

[3] = test system: intracellular E. coli LF82 in infected murine macrophages (J774); assay: macrophage model of AIEC infection, colony counts of intracellular bacteria; assay type: cell-based; conditions: for killing of intracellular LF82 in infected macrophages: infected macrophages treated for 4 and 24 hours, FIG. 4
Experimental: AI E. coli are able to infect and replicate within macrophages and epithelial cells. To determine if colicin E1 is able to kill intracellular bacteria raw murine macrophages (J774) were infected with AI E. coli LF82 and treated with colicin E1 (FIG. 3).
Raw murine macrophages (J774) were grown in 24-well tissue culture plates in RPMI tissue culture media (containing 3% fetal calf serum, 1% […], 1% pen/strep) at 37° C. in 5% CO2 until the cells reached 70-80% confluency. The macrophages were then infected with E. coli LF82 at a multiplicity of infection of 50 (MOI 50). After 2 h of infection, the macrophages were exposed to the antibiotic gentamicin (100 μg/ml) to kill any bacteria outside the macrophage which hadn't successfully invaded the cell. The LF82-infected macrophages were then treated with colicin E1 (10, 0.1, 0.001 μg/ml) for 3 h at 37° C. The macrophages were then scraped from the surface of the plate, lysed with Triton X and the intra-cellular bacteria were plated on LB agar containing 50 μg/ml ampicillin for selection of LF82. The plates were incubated overnight at 37° C. and colony counts were performed.
Experiments were performed as described for colicin E1 except that infected macrophages were treated with colicin for 4 and 24 hours.

[4] = target: outer membrane receptor BtuB (Escherichia coli, UniProt P06129); conditions: read-out: affinity for outer membrane receptor BtuB; Housden et al., 2005; cited from earlier work
outer membrane receptor BtuB, sequence (P06129 21-614): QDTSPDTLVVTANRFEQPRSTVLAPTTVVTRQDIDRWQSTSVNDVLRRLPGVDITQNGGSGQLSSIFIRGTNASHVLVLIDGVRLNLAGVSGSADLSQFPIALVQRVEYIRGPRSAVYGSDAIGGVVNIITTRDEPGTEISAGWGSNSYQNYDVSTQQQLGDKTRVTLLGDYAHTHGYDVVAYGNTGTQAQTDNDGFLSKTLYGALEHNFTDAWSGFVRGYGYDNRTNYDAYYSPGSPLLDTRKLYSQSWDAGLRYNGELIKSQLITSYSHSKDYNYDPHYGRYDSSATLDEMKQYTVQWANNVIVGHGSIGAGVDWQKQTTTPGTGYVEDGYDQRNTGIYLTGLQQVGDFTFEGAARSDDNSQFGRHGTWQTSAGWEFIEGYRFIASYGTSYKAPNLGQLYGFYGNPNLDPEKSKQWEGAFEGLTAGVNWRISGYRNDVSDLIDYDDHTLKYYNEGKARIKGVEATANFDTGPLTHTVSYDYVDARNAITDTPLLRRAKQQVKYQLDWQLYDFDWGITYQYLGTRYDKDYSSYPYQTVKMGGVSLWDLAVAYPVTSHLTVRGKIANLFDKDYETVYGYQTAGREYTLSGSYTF

Row | Molecule | ability to kill AIEC in the biofilm state [1] | sensitivity of AIEC isolates in spot tests [2] | killing of intracellular LF82 in infected macrophages [3] | Kd [4] [nM] | antimicrobial activity against biofilm-associated cells compared with ampicillin, metronidazole and rifaximin [1] | relative effectiveness among colicins in killing AIEC in the biofilm state [1] | reduction in the number of bacteria recovered from the macrophages ([3]; 10 μg/ml, 3 h, LF82-infected J774 macrophages) [%]
1 | Colicin Ia (protein, listed as Escherichia coli) MSDPVRITNPGAESLGYDSDGHEIMAVDIYVNPPRVDVFHGTPPAWSSFGNKTIWGGNEWVDDSPTRSDIEKRDKEITAYKNTLSAQQKENENKRTEAGKRLSAAIAAREKDENTLKTLRAGNADAADITRQEFRLLQAELREYGFRTEIAGYDALRLHTESRMLFADADSLRISPREARSLIEQAEKRQKDAQNADKKAADMLAEYERRKGILDTRLSELEKNGGAALAVLDAQQARLLGQQTRNDRAISEARNKLSSVTESLNTARNALTRAEQQLTQQKNTPDGKTIVSPEKFPGRSSTNHSIVVSGDPRFAGTIKITTSAVIDNRANLNYLLSHSGLDYKRNILNDRNPVVTEDVEGDKKIYNAEVAEWDKLRQRLLDARNKITSAESAVNSARNNLSARTNEQKHANDALNALLKEKENIRNQLSGINQKIAEEKRKQDELKATKDAINFTTEFLKSVSEKYGAKAEQLAREMAGQAKGKKIRNVEEALKTYEKYRADINKKINAKDRAAIAAALESVKLSDISSNLNRFSRGLGYAGKFTSLADWITEFGKAVRTENWRPLFVKTETIIAGNAATALVALVFSILTGSALGIIGYGLLMAVTGALIDESLVEKANKFWGI | good killing activity | – | – | – | – | – | –
2 | Colicin D (protein, listed as Escherichia coli) MSDYEGSGPTEGIDYGHSMVVWPSTGLISGGDVKPGGSSGIAPSMPPGWGDYSPQGIALVQSVLFPGIIRRIILDKELEEGDWSGWSVSVHSPWGNEKVSAARTVLENGLRGGLPEPSRPAAVSFARLEPASGNEQKIIRLMVTQQLEQVTDIPASQLPAAGNNVPVKYRLMDLMQNGTQYMAIIGGIPMTVPVVDAVPVPDRSRPGTNIKDVYSAPVSPNLPDLVLSVGQMNTPVLSNPEIQEEGVIAETGNYVEAGYTMSSNNHDVIVRFPEGSDVSPLYISTVEILDSNGLSQRQEAENKAKDDFRVKKEEAVARAEAEKAKAELFSKAGVNQPPVYTQEMMERANSVMNEQGALVLNNTASSVQLAMTGTGVWTAAGDIAGNISKFFSNALEKVTIPEVSPLLMRISLGALWFHSEEAGAGSDIVPGRNLEAMFSLSAQMLAGQGVVIEPGATSVNLPVRGQLINSNGQLALDLLKTGNESIPAAVPVLNAVRDTATGLDKITLPAVVGAPSRTILVNPVPQPSVPTDTGNHQPVPVTPVHTGTEVKSVEMPVTTITPVSDVGGLRDFIYWRPDAAGTGVEAVYVMLNDPLDSGRFSRKQLDKKYKHAGDFGISDTKKNRETLTKFRDAIEEHLSDKDTVEKGTYRREKGSKVYFNPNTMNVVIIKSNGEFLSGWKINPDADNGRIYLETGEL | good killing activity | sensitive | – | – | – | – | –
3 | Colicin E9 (protein, listed as Escherichia coli) MSGGDGRGHNTGAHSTSGNINGGPTGIGVSGGASDGSGWSSENNPWGGGSGSGIHWGGGSGRGNGGGNGNSGGGSGTGGNLSAVAAPVAFGFPALSTPGAGGLAVSISASELSAAIAGIIAKLKKVNLKFTPFGVVLSSLIPSEIAKDDPNMMSKIVTSLPADDITESPVSSLPLDKATVNVNVRVVDDVKDERQNISVVSGVPMSVPVVDAKPTERPGVFTASIPGAPVLNISVNDSTPAVQTLSPGVTNNTDKDVRPAGFTQGGNTRDAVIRFPKDSGHNAVYVSVSDVLSPDQVKQRQDEENRRQQEWDATHPVEAAERNYERARAELNQANEDVARNQERQAKAVQVYNSRKSELDAANKTLADAIAEIKQFNRFAHDPMAGGHRMWQMAGLKAQRAQTDVNNKQAAFDAAAKEKSDADAALSAAQERRKQKENKEKDAKDKLDKESKRNKPGKATGKGKPVGDKWLDDAGKDSGAPIPDRIADKLRDKEFKSFDDFRKAVWEEVSKDPELSKNLNPSNKSSVSKGYSPFTPKNQQVGGRKVYELHHDKPISQGGEVYDMDNIRVTTPKRHIDIHRGK | good killing activity | sensitive | able to kill intracellular LF82 | 2 | superior antimicrobial activity | most effective | –
4 | colicin E9 H575A: catalytically inactive colicin E9 variant (protein, UniProt P09883 1-582, looked up, variant H575A) Colicin-E9: MSGGDGRGHNTGAHSTSGNINGGPTGIGVSGGASDGSGWSSENNPWGGGSGSGIHWGGGSGRGNGGGNGNSGGGSGTGGNLSAVAAPVAFGFPALSTPGAGGLAVSISASELSAAIAGIIAKLKKVNLKFTPFGVVLSSLIPSEIAKDDPNMMSKIVTSLPADDITESPVSSLPLDKATVNVNVRVVDDVKDERQNISVVSGVPMSVPVVDAKPTERPGVFTASIPGAPVLNISVNDSTPAVQTLSPGVTNNTDKDVRPAGFTQGGNTRDAVIRFPKDSGHNAVYVSVSDVLSPDQVKQRQDEENRRQQEWDATHPVEAAERNYERARAELNQANEDVARNQERQAKAVQVYNSRKSELDAANKTLADAIAEIKQFNRFAHDPMAGGHRMWQMAGLKAQRAQTDVNNKQAAFDAAAKEKSDADAALSAAQERRKQKENKEKDAKDKLDKESKRNKPGKATGKGKPVGDKWLDDAGKDSGAPIPDRIADKLRDKEFKSFDDFRKAVWEEVSKDPELSKNLNPSNKSSVSKGYSPFTPKNQQVGGRKVYELHHDKPISQGGEVYDMDNIRVTTPKRAIDIHRGK | – | – | no killing | – | – | – | –
5 | Colicin E1 (protein, listed as Escherichia coli) METAVAYYKDGVPYDDKGQVIITLLNGTPDGSGSGGGGGKGGSKSESSAAIHATAKWSTAQLKKTQAEQAARAKAAAEAQAKAKANRDALTQRLKDIVNEALRHNASRTPSATELAHANNAAMQAEDERLRLAKAEEKARKEAEAAEKAFQEAEQRRKEIEREKAETERQLKLAEAEEKRLAALSEEAKAVEIAQKKLSAAQSEVVKMDGEIKTLNSRLSSSIHARDAEMKTLAGKRNELAQASAKYKELDELVKKLSPRANDPLQNRPFFEATRRRVGAGKIREEKQKQVTASETRINRINADITQIQKAISQVSNNRNAGIARVHEAEENLKKAQNNLLNSQIKDAVDATVSFYQTLTEKYGEKYSKMAQELADKSKGKKIGNVNEALAAFEKYKDVLNKKFSKADRDAIFNALASVKYDDWAKHLDQFAKYLKITGHVSFGYDVVSDILKIKDTGDWKPLFLTLEKKAADAGVSYVVALLFSLLAGTTLGIWGIAIVTGILCSYIDKNKLNTINEVLGI | good killing activity | sensitive | – | – | superior antimicrobial activity | most effective | ~80
6 | Colicin E3 (protein, listed as Escherichia coli) MSGGDGRGHNTGAHSTSGNINGGPTGLGVGGGASDGSGWSSENNPWGGGSGSGIHWGGGSGHGNGGGNGNSGGGSGTGGNLSAVAAPVAFGFPALSTPGAGGLAVSISAGALSAAIADIMAALKGPFKFGLWGVALYGVLPSQIAKDDPNMMSKIVTSLPADDITESPVSSLPLDKATVNVNVRVVDDVKDERQNISVVSGVPMSVPVVDAKPTERPGVFTASIPGAPVLNISVNNSTPAVQTLSPGVTNNTDKDVRPAGFTQGGNTRDAVIRFPKDSGHNAVYVSVSDVLSPDQVKQRQDEENRRQQEWDATHPVEAAERNYERARAELNQANEDVARNQERQAKAVQVYNSRKSELDAANKTLADAIAEIKQFNRFAHDPMAGGHRMWQMAGLKAQRAQTDVNNKQAAFDAAAKEKSDADAALSSAMESRKKKEDKKRSAENNLNDEKNKPRKGFKDYGHDYHPAPKTENIKGLGDLKPGIPKTPKQNGGGKRKRWTGDKGRKIYEWDSQHGELEGYRASDGQHLGSFDPKTGNQLKGPDPKRNIKKYL | good killing activity | sensitive | – | – | – | – | –
